The source of these data is PMC3440374, “High Inorganic Triphosphatase Activities in Bacteria and Mammalian Cells: Identification of the Enzymes Involved” (PLoS ONE, 2012).

In one data set the target is T1, CyaB (Aeromonas hydrophila, UniProt O69199).
T1 construct: full length from first Met, cloned in PVP16 as 8HIS-MBP fusion, tag removed by TEV digestion; produced in E. coli BL21DE3; nickel column
T1 sequence (O69199 1-191): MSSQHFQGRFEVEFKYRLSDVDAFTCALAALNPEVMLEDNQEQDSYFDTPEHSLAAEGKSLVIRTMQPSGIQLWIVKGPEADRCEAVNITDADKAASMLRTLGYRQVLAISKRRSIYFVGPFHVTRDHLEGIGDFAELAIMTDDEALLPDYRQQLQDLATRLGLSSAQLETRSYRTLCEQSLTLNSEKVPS
The experiment in a line: inorganic phosphate release, colorimetric. Format: biochemical. The following applies: 0.5 mM substrate, 5 mM Mg2+ or Mn2+, pH 9.1, 50°C.

Substrate in data set [1]: O=P(O)(O)OP(=O)(O)OP(=O)(O)O
The experiment in a line: inorganic phosphate release, colorimetric. The data set is classed as biochemical, Escherichia coli. The conditions noted are these: 10 mM Mg2+, 50 mM CHES pH 9.1, 25°C.

Substrate in data set [2]: O=P(O)(O)OP(=O)(O)OP(=O)(O)O
The experiment in a line: inorganic phosphate release, colorimetric, Michaelis-Menten fit. The data set is classed as biochemical, Escherichia coli. The following applies: 5 mM Mg2+, pH 8.5, 50°C.

Regarding `Cc1ncc(C[n+]2csc(CCOP(=O)(O)OP(=O)(O)OP(=O)(O)O)c2C)c(N)n1` [ThTP], the “inorganic phosphate release, colorimetric” value at CyaB was “it indeed hydrolyzes substrates such as ATP, ThTP and PPPi but at a low rate”.

Consider `O=P(O)(O)OP(=O)(O)OP(=O)(O)O` [PPPi], for which the “inorganic phosphate release, colorimetric” value on CyaB was “it indeed hydrolyzes substrates such as ATP, ThTP and PPPi but at a low rate”.

B1: EcPPase (Escherichia coli K-12) (protein)
chain: SLLNVPAGKDLPEDIYVVIEIPANADPIKYEIDKESGALFVDRFMSTAMFYPCNYGYINHTLSLDGDPVDVLVPTPYPLQPGSVIRCRPVGVLKMTDEAGEDAKLVAVPHSKLSKEYDHIKDVNDLPELLKAQIAHFFEHYKDLEKGKWVKVEGWENAEAAKAEIVASFERAKNK
notes: commercial purified recombinant preparation (Sigma-Aldrich); 20 kDa per subunit
On to B1, for which, in data set [1], the Km was 910 ± 90 µM and the kcat was 16.7 s⁻¹.

B2: GST-ygiF (Escherichia coli K-12) (protein)
chain: MAQEIELKFIVNHSAVEALRDHLNTLGGEHHDPVQLLNIYYETPDNWLRGHDMGLRIRGENGRYEMTMKVAGRVTGGLHQRPEYNVALSEPTLDLAQLPTEVWPNGELPADLASRVQPLFSTDFYREKWLVAVDGSQIEIALDQGEVKAGEFAEPICELELELLSGDTRAVLKLANQLVSQTGLRQGSLSKAARGYHLAQGNPAREIKPTTILHVAAKADVEQGLEAALELALAQWQYHEELWVRGNDAAKEQVLAAISLVRHTLMLFGGIVPRKASTHLRDLLTQCEATIASAVSAVTAVYSTETAMAKLALTEWLVSKAWQPFLDAKAQGKISDSFKRFADIHLSRHAAELKSVFCQPLGDRYRDQLPRLTRDIDSILLLAGYYDPVVAQAWLENWQGLHHAIATGQRIEIEHFRNEANNQEPFWLHSGKR
notes: produced in E. coli DH5alpha, GSTrap purified
Consider B2, for which the Km in data set [2] stood at 270 ± 25 µM.

As usually defined, the Km is the substrate concentration at which the rate is half of its maximum. As usually defined, the kcat is the number of substrate molecules converted per active site and unit of time at saturation.
